Laboratory results from patent US20200268847A1, “Methods of Treating Newly Diagnosed Multiple Myeloma with a Combination of An Antibody that Specifically Binds CD38, Lenalidomide and Dexamethasone” (Janssen Biotech, Inc., priority 2019, published 2020).

Tested on: patients with newly diagnosed multiple myeloma ineligible for HDC and ASCT
Test: MAIA: safety, adverse events graded by NCI-CTCAE version 4, treatment discontinuations
Description: Safety will be measured by adverse events, laboratory test results, ECGs, vital sign measurements, physical examination findings, and assessment of ECOG performance status score.
Safety analyses included adverse event assessment graded in severity according to NCI-CTCAE version 4, electrocardiograms, clinical laboratory testing, physical examinations, and vital signs.
The safety population included patients who received any dose of trial treatment.

Question: How did the “infusion-related reactions occurring during the first dose” value (% of patients with infusion reactions) turn out when “Daratumumab (DARZALEX®): antibody that specifically binds CD38, heavy chain of SEQ ID NO: 9 and light chain of SEQ ID NO: 10 [reference compound]” was run?
Answer: 98.0%

Question: What about the infusion-related reactions (% of patients, any grade) of the same substance?
Answer: 40.9%

Question: And the “patients who discontinued daratumumab treatment due to an infusion-related reaction” value (grade 4 hypertension)?
Answer: one

Question: What about the “infusion-related reactions, grade 3 or 4 events” value (in vivo) of the same substance?
Answer: 2.7%

Question: What about the “infusion-related reactions, grade 5 events” value (in vivo) of the same substance?
Answer: no grade 5 events were reported
